One series addresses T1, BVU2420 (Phocaeicola vulgatus, UniProt A6L315).
T1 sequence (A6L315 1-135): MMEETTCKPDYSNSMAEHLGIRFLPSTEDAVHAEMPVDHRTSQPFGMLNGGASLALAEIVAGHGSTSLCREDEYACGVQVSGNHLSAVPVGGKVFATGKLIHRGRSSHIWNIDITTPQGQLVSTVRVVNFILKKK
Briefly: DTNB-coupled thioesterase assay, […] nm. The class given is biochemical. The note with it: pH 7.5, 25 °C, 50 mM HEPES, 0.15 M KCl, 1 mM DTNB.

The target in the next series is T2, PG1653 (Porphyromonas gingivalis, UniProt Q7MU91).
T2 sequence (Q7MU91 1-407): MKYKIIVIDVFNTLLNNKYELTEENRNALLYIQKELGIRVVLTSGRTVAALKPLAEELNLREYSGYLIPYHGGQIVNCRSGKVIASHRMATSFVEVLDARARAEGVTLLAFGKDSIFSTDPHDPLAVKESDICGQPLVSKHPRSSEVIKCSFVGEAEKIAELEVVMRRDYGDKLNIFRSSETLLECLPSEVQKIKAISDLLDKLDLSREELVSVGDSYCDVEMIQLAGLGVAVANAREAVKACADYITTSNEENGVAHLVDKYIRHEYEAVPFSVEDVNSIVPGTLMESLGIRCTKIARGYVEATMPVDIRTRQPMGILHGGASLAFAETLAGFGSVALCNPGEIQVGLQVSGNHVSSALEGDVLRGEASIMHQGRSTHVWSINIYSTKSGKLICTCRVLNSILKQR
Briefly: DTNB-coupled thioesterase assay, […] nm. Conditions: pH 7.5, 25 °C, 50 mM HEPES, 0.15 M KCl, 1 mM DTNB. The series is classed as biochemical.

Another series has as its target T3, BF1314 (Bacteroides fragilis, UniProt Q5LFS7).
T3 sequence (Q5LFS7 1-410): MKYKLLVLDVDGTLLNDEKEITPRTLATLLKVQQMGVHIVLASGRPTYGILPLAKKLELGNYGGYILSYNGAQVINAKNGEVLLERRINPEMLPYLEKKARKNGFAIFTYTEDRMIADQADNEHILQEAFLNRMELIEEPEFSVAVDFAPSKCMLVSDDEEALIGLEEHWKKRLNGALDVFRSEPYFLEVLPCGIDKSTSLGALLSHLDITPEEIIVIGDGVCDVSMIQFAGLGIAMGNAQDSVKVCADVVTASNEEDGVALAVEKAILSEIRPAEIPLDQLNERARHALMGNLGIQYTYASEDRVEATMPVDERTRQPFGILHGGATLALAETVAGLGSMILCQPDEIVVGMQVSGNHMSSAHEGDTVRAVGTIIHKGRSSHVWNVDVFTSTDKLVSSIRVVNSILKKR
Briefly: DTNB-coupled thioesterase assay, […] nm. The class given is biochemical. The note with it: pH 7.5, 25 °C, 50 mM HEPES, 0.15 M KCl, 1 mM DTNB.

Substrate in series [1]: CC(C)(COP(=O)(O)OP(=O)(O)OC[C@H]1O[C@@H](n2cnc3c(N)ncnc32)[C@H](O)[C@@H]1OP(=O)(O)O)[C@@H](O)C(=O)NCCC(=O)NCCSC(=O)c1ccccc1
Briefly: purified protein. The series is classed as biochemical, Phocaeicola vulgatus. The note with it: pH 7.5, 25 °C, 50 mM HEPES, 0.15 M KCl, 1 mM DTNB.

Substrate in series [2]: CC(C)(COP(=O)(O)OP(=O)(O)OC[C@H]1O[C@@H](n2cnc3c(N)ncnc32)[C@H](O)[C@@H]1OP(=O)(O)O)[C@@H](O)C(=O)NCCC(=O)NCCSC(=O)c1cc(O)c2ccccc2c1O
Briefly: purified protein. The class given is biochemical, Phocaeicola vulgatus. The note with it: pH 7.5, 25 °C, 50 mM HEPES, 0.15 M KCl, 1 mM DTNB.

Substrate in series [3]: CC(C)(COP(=O)(O)OP(=O)(O)OC[C@H]1O[C@@H](n2cnc3c(N)ncnc32)[C@H](O)[C@@H]1OP(=O)(O)O)[C@@H](O)C(=O)NCCC(=O)NCCSC(=O)c1ccc(O)cc1
Briefly: purified protein. The series is classed as biochemical, Phocaeicola vulgatus. Conditions: pH 7.5, 25 °C, 50 mM HEPES, 0.15 M KCl, 1 mM DTNB.

Substrate in series [4]: CC(C)(COP(=O)(O)OP(=O)(O)OC[C@H]1O[C@@H](n2cnc3c(N)ncnc32)[C@H](O)[C@@H]1OP(=O)(O)O)[C@@H](O)C(=O)NCCC(=O)NCCSC(=O)Cc1cccc(O)c1
Briefly: purified protein. The series is classed as biochemical, Phocaeicola vulgatus. The note with it: pH 7.5, 25 °C, 50 mM HEPES, 0.15 M KCl, 1 mM DTNB.

Substrate in series [5]: O=P(O)(O)NP(=O)(O)O
Briefly: purified protein. The note with it: pH 7.5, 25 °C, 1 mM MgCl2 (table; methods say 2 mM).

Substrate in series [6]: O=P(O)(O)OC[C@H](O)CO
Briefly: purified protein. Conditions: pH 7.5, 25 °C, 1 mM MgCl2 (table; methods say 2 mM).

Substrate in series [7]: NC(=O)OP(=O)(O)O
Briefly: purified protein. Conditions: pH 7.5, 25 °C, 1 mM MgCl2 (table; methods say 2 mM).

Substrate in series [8]: CC(=O)OP(=O)(O)O
Briefly: purified protein. Conditions: pH 7.5, 25 °C, 1 mM MgCl2 (table; methods say 2 mM).

Substrate in series [9]: CC(C)(COP(=O)(O)OP(=O)(O)OC[C@H]1O[C@@H](n2cnc3c(N)ncnc32)[C@H](O)[C@@H]1OP(=O)(O)O)[C@@H](O)C(=O)NCCC(=O)NCCSC(=O)c1ccccc1
Briefly: purified protein. The series is classed as biochemical, Porphyromonas gingivalis. Conditions: pH 7.5, 25 °C, 50 mM HEPES, 0.15 M KCl, 1 mM DTNB.

Substrate in series [10]: CC(C)(COP(=O)(O)OP(=O)(O)OC[C@H]1O[C@@H](n2cnc3c(N)ncnc32)[C@H](O)[C@@H]1OP(=O)(O)O)[C@@H](O)C(=O)NCCC(=O)NCCSC(=O)c1cc(O)c2ccccc2c1O
Briefly: purified protein. The class given is biochemical, Porphyromonas gingivalis. Conditions: pH 7.5, 25 °C, 50 mM HEPES, 0.15 M KCl, 1 mM DTNB.

Substrate in series [11]: CC(C)(COP(=O)(O)OP(=O)(O)OC[C@H]1O[C@@H](n2cnc3c(N)ncnc32)[C@H](O)[C@@H]1OP(=O)(O)O)[C@@H](O)C(=O)NCCC(=O)NCCSC(=O)c1ccc(O)cc1
Briefly: purified protein. Conditions: pH 7.5, 25 °C, 50 mM HEPES, 0.15 M KCl, 1 mM DTNB. The series is classed as biochemical, Porphyromonas gingivalis.

Substrate in series [12]: CC(C)(COP(=O)(O)OP(=O)(O)OC[C@H]1O[C@@H](n2cnc3c(N)ncnc32)[C@H](O)[C@@H]1OP(=O)(O)O)[C@@H](O)C(=O)NCCC(=O)NCCSC(=O)Cc1cccc(O)c1
Briefly: purified protein. The class given is biochemical, Porphyromonas gingivalis. Conditions: pH 7.5, 25 °C, 50 mM HEPES, 0.15 M KCl, 1 mM DTNB.

Substrate in series [13]: CC(C)(COP(=O)(O)OP(=O)(O)OC[C@H]1O[C@@H](n2cnc3c(N)ncnc32)[C@H](O)[C@@H]1OP(=O)(O)O)[C@@H](O)C(=O)NCCC(=O)NCCSC(=O)c1ccccc1
Briefly: purified protein. The class given is biochemical, Bacteroides fragilis. The note with it: pH 7.5, 25 °C, 50 mM HEPES, 0.15 M KCl, 1 mM DTNB.

Substrate in series [14]: NC(=O)OP(=O)(O)O
Briefly: purified protein. The series is classed as biochemical, Bacteroides fragilis. Conditions: pH 7.5, 25 °C, 1 mM MgCl2 (table; methods say 2 mM).

Substrate in series [15]: CC(C)(COP(=O)(O)OP(=O)(O)OC[C@H]1O[C@@H](n2cnc3c(N)ncnc32)[C@H](O)[C@@H]1OP(=O)(O)O)[C@@H](O)C(=O)NCCC(=O)NCCSC(=O)c1cc(O)c2ccccc2c1O
Briefly: purified protein. The note with it: pH 7.5, 25 °C, 50 mM HEPES, 0.15 M KCl, 1 mM DTNB. The class given is biochemical, Bacteroides fragilis.

Substrate in series [16]: CC(C)(COP(=O)(O)OP(=O)(O)OC[C@H]1O[C@@H](n2cnc3c(N)ncnc32)[C@H](O)[C@@H]1OP(=O)(O)O)[C@@H](O)C(=O)NCCC(=O)NCCSC(=O)c1ccc(O)cc1
Briefly: purified protein. The class given is biochemical, Bacteroides fragilis. The note with it: pH 7.5, 25 °C, 50 mM HEPES, 0.15 M KCl, 1 mM DTNB.

Substrate in series [17]: CC(C)(COP(=O)(O)OP(=O)(O)OC[C@H]1O[C@@H](n2cnc3c(N)ncnc32)[C@H](O)[C@@H]1OP(=O)(O)O)[C@@H](O)C(=O)NCCC(=O)NCCSC(=O)Cc1cccc(O)c1
Briefly: purified protein. The series is classed as biochemical, Bacteroides fragilis. Conditions: pH 7.5, 25 °C, 50 mM HEPES, 0.15 M KCl, 1 mM DTNB.

Broadly, the Km is the substrate concentration at which the rate is half of its maximum. As usually defined, the kcat is the maximal rate divided by the concentration of active sites. The term kcat/Km denotes the second-order rate constant that governs catalysis at low substrate concentration.

Regarding napthoyl-CoA, the Km on BVU2420 turned out to be 180 µM; at PG1653, 170 µM; at BF1314 it was 230 µM.

B1: BVU2420 (Phocaeicola vulgatus ATCC 8482) (protein)
chain: T1 sequence (A6L315 1-135)
Take B1: the Michaelis-Menten constant (Km) result in the series “purified protein [1]” is given as “(3.1 ± 0.4) × 10^1 μM”; in “purified protein [2]” it was “(1.5 ± 0.1) × 10^1 μM”; in the series “purified protein [3]” it was “(3.3 ± 0.2) × 10^1 μM”; in “purified protein [4]”, “(8.1 ± 0.6) × 10^2 μM”. Also, the kcat is 0.028 ± 0.001 s⁻¹ in the series “purified protein [1]”, 13 ± 1 s⁻¹ in the series “purified protein [2]”, 1.2 ± 0.1 s⁻¹ in the series “purified protein [3]” and 0.034 ± 0.001 s⁻¹ in the series “purified protein [4]”.

B2: BF1314-HAD Domain (Bacteroides fragilis NCTC 9343) (protein)
chain: MKYKLLVLDVDGTLLNDEKEITPRTLATLLKVQQMGVHIVLASGRPTYGILPLAKKLELGNYGGYILSYNGAQVINAKNGEVLLERRINPEMLPYLEKKARKNGFAIFTYTEDRMIADQADNEHILQEAFLNRMELIEEPEFSVAVDFAPSKCMLVSDDEEALIGLEEHWKKRLNGALDVFRSEPYFLEVLPCGIDKSTSLGALLSHLDITPEEIIVIGDGVCDVSMIQFAGLGIAMGNAQDSVKVCADVVTASNEEDGVALAVEKAILSEIRPAEIPLDQLNERARHAL
In the case of B2, the Km worked out at 7400 ± 500 µM in “purified protein [5]”, 63 ± 2 µM in the series “purified protein [6]”, 970 ± 80 µM in the series “purified protein [7]” and 870 ± 60 µM in the series “purified protein [8]”. Besides, the kcat in the series “purified protein [5]” is 0.383 ± 0.0167 s⁻¹; in the series “purified protein [6]”, 0.011 ± 0.001 s⁻¹; in the series “purified protein [7]” it was 0.04167 ± 0.000333 s⁻¹; in “purified protein [8]” it was 0.02 ± 0.00167 s⁻¹. The kcat/Km in “purified protein [5]” came to 51 M⁻¹ s⁻¹; in the series “purified protein [6]” it was 170 M⁻¹ s⁻¹; in “purified protein [7]” it was 42 M⁻¹ s⁻¹; in “purified protein [8]”, 23 M⁻¹ s⁻¹.

B3: PG1653 (Porphyromonas gingivalis W83) (protein)
chain: T2 sequence (Q7MU91 1-407)
Take B3: the Km result in “purified protein [9]” is “(5.8 ± 0.5) × 10^1 μM”; in the series “purified protein [10]”, 4.0 ± 0.3 µM; in “purified protein [11]” it was “(8.0 ± 0.6) × 10^2 μM”; in “purified protein [12]”, “(1.7 ± 0.3) × 10^2 μM”. Also, the kcat in the series “purified protein [9]” stood at 0.03 ± 0.001 s⁻¹; in “purified protein [10]”, 10 ± 1 s⁻¹; in the series “purified protein [11]” it was 4.6 ± 0.1 s⁻¹; in “purified protein [12]”, 0.31 ± 0.02 s⁻¹.

B4: BF1314 (Bacteroides fragilis NCTC 9343) (protein)
chain: T3 sequence (Q5LFS7 1-410)
B4: the Km entry is “(8.4 ± 0.8) × 10^1 μM” in the series “purified protein [13]”; 440 ± 30 µM in the series “purified protein [14]”; 7.0 ± 0.5 µM in the series “purified protein [15]”; “(2.3 ± 0.2) × 10^2 μM” in “purified protein [16]”; “(4.6 ± 0.4) × 10^1 μM” in “purified protein [17]”. For the same molecule, the kcat in the series “purified protein [13]” was determined as 0.024 ± 0.002 s⁻¹; in “purified protein [14]”, 0.0217 ± 0.00167 s⁻¹; in the series “purified protein [15]”, 12 ± 1 s⁻¹; in “purified protein [16]”, 1.1 ± 0.1 s⁻¹; in “purified protein [17]” it was 0.19 ± 0.01 s⁻¹. In addition, in “purified protein [14]”, the kcat/Km is 54 M⁻¹ s⁻¹.

For the origin of these results see publication PMC3912074 (FEBS letters, 2013).
